Biological target: the molecule itself
Test: SEC; size exclusion chromatography of His6-MBP-HAB1(171–511 aa) treated with 0.3 mM H2O2 for 30 min at 30°C; monomer to disulfide-linked dimer

B1: His6-MBP-HAB1(171–511 aa) wild type (domain or fragment, Arabidopsis thaliana, UniProt Q9CAJ0 171-511, looked up)
chain: NSNHLVKGRSVYELDCIPLWGTVSIQGNRSEMEDAFAVSPHFLKLPIKMLMGDHEGMSPSLTHLTGHFFGVYDGHGGHKVADYCRDRLHFALAEEIERIKDELCKRNTGEGRQVQWDKVFTSCFLTVDGEIEGKIGRAVVGSSDKVLEAVASETVGSTAVVALVCSSHIVVSNCGDSRAVLFRGKEAMPLSVDHKPDREDEYARIENAGGKVIQWQGARVFGVLAMSRSIGDRYLKPYVIPEPEVTFMPRSREDECLILASDGLWDVMNNQEVCEIARRRILMWHKKNGAPPLAERGKGIDPACQAAADYLSMLALQKGSKDNISIIVIDLKAQRKFKTRT
notes: HAB1 protein phosphatase 2C, Arabidopsis thaliana, phosphatase domain, residues 171-511; In some assays the protein was treated with 0.3 mM or 1 mM H2O2 (30 min, 30°C) beforehand; the treatment is told by the assay; After 0.3 mM H2O2 it is a mixture of monomers and disulfide-linked dimers (C186, C274), after 1 mM higher oligomers; also called HAB1 phosphatase domain; wild type HAB1; source: E. …
In the case of B1, the “stoichiometry N” value is reported as 2.
